# Experimental data published in the supplement of paper PMC10567573.
# B1: ESRRA (parent)
# chain: LGVAQRSLPLQDELAFAEDLVLDE
# Variants of: B1
# Experiment: protein stability index of a GFP-peptide fusion (GPS, HEK-293T) (PSI 1-6); higher = more stable
# Settings: c terminus: a fixed tail appended
# 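Also: lentivirally expressed fusions sorted by FACS into six bins by GFP to DsRed ratio, PSI derived from sequencing read proportions per bin multiplied by bin number.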
row,Variant,protein stability index
1,LGVAQRSLPLQDELAMAEDLVLDE,2.81
2,LGVAQRSLPLQDELAQAEDLVLDE,2.68
3,LGVAQRSLPLQDELAKAEDLVLDE,3.43
4,LGVAQRSLPLQDELAFAEDGVLDE,5.51
5,LGVAQRSLPLQDELAFAEDKVLDE,4.98
6,LGVAQRSLPLQDELAFAEDIVLDE,3.18
7,LGVAQRSLPLQDELAFAEDNVLDE,4.85
8,LGVAQRSLPLQDELAFAEDCVLDE,2.51
9,LGVAQRSLPLQDELAFAEDPVLDE,5.75
10,LGVAQRSLPLQDELAFAEDFVLDE,4.98
11,LGVAQRSLPLQDELAFAEDRVLDE,4.19
12,LGVAQRSLPLQDELAFAEDSVLDE,4.4
13,LGVAQRSLPLQDELAFAEDHVLDE,4.81
14,LGVAQRSLPLQDELAFAEDQVLDE,4.21
15,LGVAQRSLPLQDELAFAEDEVLDE,3.12
16,LGVAQRSLPLQDELAFAEDMVLDE,2.16
17,LGVAQRSLPLQDELAFAEDDVLDE,5.36
18,LGVAQRSLPLQDELAFAEDAVLDE,4.42
19,LGVAQRSLPLQDELGFAEDLVLDE,4.74
20,LGVAQRSLPLQDELYFAEDLVLDE,4.29
21,LGVAQRSLPLQDELWFAEDLVLDE,3.22
22,LGVAQRSLPLQDELLFAEDLVLDE,3.81
23,LGVAQRSLPLQDELSFAEDLVLDE,3.68
24,LGVAQRSLPLQDELCFAEDLVLDE,3.93

row,Variant,protein stability index
1,LGVAQRSLPLQDELRFAEDLVLDE,1.82
2,LGVAQRSLPLQDELDFAEDLVLDE,4.77
3,LGVAQRSLPLQDELIFAEDLVLDE,4.41
4,LGVAQRSLPLQDELFFAEDLVLDE,4.42
5,LGVAQRSLPLQDELQFAEDLVLDE,3.65
6,LGVAQRSLPLQDELMFAEDLVLDE,3.49
7,LGVAQRSLPLQDELVFAEDLVLDE,4.41
8,LGVAQRSLPLQDELNFAEDLVLDE,3.85
9,LGVAQRSLPLQDELHFAEDLVLDE,4.39
10,LGVAQRSLPLQDELKFAEDLVLDE,2.3
11,LGVAQRSLPLQDELTFAEDLVLDE,3.26
12,LGVAQRSLPLQDELEFAEDLVLDE,4.74
13,LGVAQRSLPLQDELPFAEDLVLDE,5.28
14,LGVAQRSLPLIDELAFAEDLVLDE,3.35
15,LGVAQRSLPLLDELAFAEDLVLDE,3.3
16,LGVAQRSLPLEDELAFAEDLVLDE,4.87
17,LGVAQRSLPLHDELAFAEDLVLDE,3.21
18,LGVAQRSLPLVDELAFAEDLVLDE,3.14
19,LGVAQRSLPLSDELAFAEDLVLDE,4.37
20,LGVAQRSLPLDDELAFAEDLVLDE,4.92
21,LGVAQRSLPLMDELAFAEDLVLDE,3.65
22,LGVAQRSLPLNDELAFAEDLVLDE,4.12
23,LGVAQRSLPLADELAFAEDLVLDE,3.11
24,LGVAQRSLPLCDELAFAEDLVLDE,3.94

row,Variant,protein stability index
1,LGVAQRSLPLWDELAFAEDLVLDE,2.71
2,LGVAQRSLPLKDELAFAEDLVLDE,2
3,LGVAQRSLPLTDELAFAEDLVLDE,4.57
4,LGVAQRSLPLGDELAFAEDLVLDE,3.38
5,LGVAQRSLPLPDELAFAEDLVLDE,4.66
6,LGVAQRSLPLYDELAFAEDLVLDE,3.12
7,LGVAQRSLPLRDELAFAEDLVLDE,2.94
8,LGVAQRSLPLFDELAFAEDLVLDE,4
9,LGVAQRSLPLQKELAFAEDLVLDE,2.98
10,LGVAQRSLPLQIELAFAEDLVLDE,1.74
11,LGVAQRSLPLQSELAFAEDLVLDE,2.01
12,LGVAQRSLPLQQELAFAEDLVLDE,1.7
13,LGVAQRSLPLQTELAFAEDLVLDE,1.86
14,LGVAQRSLPLQAELAFAEDLVLDE,3.13
15,LGVAQRSLPLQGELAFAEDLVLDE,3.59
16,LGVAQRSLPLQMELAFAEDLVLDE,2.37
17,LGVAQRSLPLQCELAFAEDLVLDE,1.92
18,LGVAQRSLPLQNELAFAEDLVLDE,3.19
19,LGVAQRSLPLQRELAFAEDLVLDE,1.95
20,LGVAQRSLPLQEELAFAEDLVLDE,2.3
21,LGVAQRSLPLQPELAFAEDLVLDE,4.59
22,LGVAQRSLPLQVELAFAEDLVLDE,2.22
23,LGVAQRSLPLQLELAFAEDLVLDE,1.88
24,LGVAQRSLPLQFELAFAEDLVLDE,1.46

row,Variant,protein stability index
1,LGVAQRSLPLQWELAFAEDLVLDE,2.04
2,LGVAQRSLPLQHELAFAEDLVLDE,2.17
3,LGVAQRSLPLQYELAFAEDLVLDE,1.8
4,LGVAQRSLPLQDELAFAEYLVLDE,2.03
5,LGVAQRSLPLQDELAFAERLVLDE,2.01
6,LGVAQRSLPLQDELAFAEILVLDE,1.94
7,LGVAQRSLPLQDELAFAECLVLDE,1.82
8,LGVAQRSLPLQDELAFAESLVLDE,2.21
9,LGVAQRSLPLQDELAFAELLVLDE,2.16
10,LGVAQRSLPLQDELAFAEGLVLDE,2.05
11,LGVAQRSLPLQDELAFAEALVLDE,1.89
12,LGVAQRSLPLQDELAFAEFLVLDE,2.56
13,LGVAQRSLPLQDELAFAEPLVLDE,4.89
14,LGVAQRSLPLQDELAFAEWLVLDE,2.23
15,LGVAQRSLPLQDELAFAEQLVLDE,3.58
16,LGVAQRSLPLQDELAFAEHLVLDE,1.83
17,LGVAQRSLPLQDELAFAEMLVLDE,2.43
18,LGVAQRSLPLQDELAFAENLVLDE,1.76
19,LGVAQRSLPLQDELAFAEKLVLDE,2.49
20,LGVAQRSLPLQDELAFAEELVLDE,2.34
21,LGVAQRSLPLQDELAFAETLVLDE,1.91
22,LGVAQRSLPLQDELAFAEVLVLDE,1.76
